Assay results taken from article PMC6614801.

Biological target: T1, SuhB (inositol mono-phosphatase SuhB), wild type (E. coli), P0ADG4
T1 chain: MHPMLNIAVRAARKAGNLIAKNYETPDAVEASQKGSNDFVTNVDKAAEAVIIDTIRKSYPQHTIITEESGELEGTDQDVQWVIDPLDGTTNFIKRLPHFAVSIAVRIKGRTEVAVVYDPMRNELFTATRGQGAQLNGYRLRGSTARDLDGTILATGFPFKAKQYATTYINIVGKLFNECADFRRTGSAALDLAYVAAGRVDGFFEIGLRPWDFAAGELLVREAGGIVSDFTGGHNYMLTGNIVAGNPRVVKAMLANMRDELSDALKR
Assay: SEC-MALS; 60 μl (15 nmol) of SuhB on Superdex 200 increase 10/300; 20 mM HEPES pH 7.5, 50 mM NaCl, 0.02% (w/v) NaN3
Conditions: remark: other sources report otherwise

- stoichiometry N: 2
B1: SuhB (inositol mono-phosphatase SuhB), wild type, P0ADG4 1-267 (natural protein)
chain: T1 chain
